Source: publication PMC2175198

Target: ribosomes (membrane-bound, carrying nascent chains) (S. cerevisiae (endogenous in yeast microsomes))
Assay: co-sedimentation

Molecule | percent of Sec61p bound to ribosomes (25°C; sec61-3 strain) | percent of Sec61p bound to ribosomes (25°C; wild-type and srp101-47 strains) | percent of Sec61p bound to ribosomes (srp101-47 strain, 3 h at 37°C)
Sec61p of the sec61-3 mutant (from UniProt P32915 1-480) (natural protein) | 30% | – | –
Sec61p (natural protein) MSSNRVLDLFKPFESFLPEVIAPERKVPYNQKLIWTGVSLLIFLILGQIPLYGIVSSETSDPLYWLRAMLASNRGTLLELGVSPIITSSMIFQFLQGTQLLQIRPESKQDRELFQIAQKVCAIILILGQALVVVMTGNYGAPSDLGLPICLLLIFQLMFASLIVMLLDELLSKGYGLGSGISLFTATNIAEQIFWRAFAPTTVNSGRGKEFEGAVIAFFHLLAVRKDKKRALVEAFYRTNLPNMFQVLMTVAIFLFVLYLQGFRYELPIRSTKVRGQIGIYPIKLFYTSNTPIMLQSALTSNIFLISQILFQKYPTNPLIRLIGVWGIRPGTQGPQMALSGLAYYIQPLMSLSEALLDPIKTIVYITFVLGSCAVFSKTWIEISGTSPRDIAKQFKDQGMVINGKRETSIYRELKKIIPTAAAFGGATIGALSVGSDLLGTLGSGASILMATTTIYGYYEAAAKEGGFTKNLVPGFSDLM | – | 30% | 20%
